{
  "source": "patent US20210000909A1",
  "target": "PDZ1/2 domain, P78352",
  "sequence (P78352 61-249 limits assumed)": "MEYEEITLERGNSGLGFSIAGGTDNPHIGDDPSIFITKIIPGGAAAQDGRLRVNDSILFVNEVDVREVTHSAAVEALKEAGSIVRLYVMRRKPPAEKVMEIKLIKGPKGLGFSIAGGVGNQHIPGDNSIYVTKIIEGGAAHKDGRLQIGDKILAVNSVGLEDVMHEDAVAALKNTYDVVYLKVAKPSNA",
  "data": [
    {"binder": "YGRKKRRQRRRYEKLSSIESDV (modifications not checked)", "note": "[chimeric peptide YE-NA-1]", "values": [
      {"measurement": "Kd", "value": 54.4, "unit": "nM"}
    ]}
  ]
}
